Consider one molecule from PMC5428781, “Novel insights into the interaction of UBA5 with UFM1 via a UFM1-interacting sequence” (Scientific Reports, 2017).

In general, Kd refers to the concentration at which binding is half-saturated. The low end stands for a tighter complex, the high end for a looser complex.

Ends that are not written are not given here. fluorescein = fluorescein label on the N-terminus

For this experiment, the target named is T1, ubiquitin-fold modifier 1 (UFM1) (human, UniProt P61960 1-83).
T1 construct: ubiquitin-fold modifier 1 (UFM1), human; the form that ends at Gly 83 (the residues missing in the models are counted up to Gly 83); pET15b, N-terminal His6 followed by a TEV site; purified by the protocol of the UBA5 constructs, which removes the tag; In solution a monomer and a fraction of dimer; also called UFM1 WT; UFM1 alone; source: E. coli, purified (His-Trap, TEV cleavage, second …)
T1 sequence (P61960 1-83): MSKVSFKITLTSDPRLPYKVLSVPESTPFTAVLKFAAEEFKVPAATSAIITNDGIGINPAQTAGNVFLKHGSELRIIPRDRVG
Briefly: fluorescence polarisation; UFM1 at various concentrations with 120 nM N-terminal fluorescein-labeled UIS peptide; 50 mM Hepes pH 7.5, 150 mM NaCl, 5% glycerol, 0.2 mg/ml BSA; room temperature; triplicate; one site specific binding fit. As to conditions: both partners purified.

The molecule fluorescein-IIHEDNEWGIELV (peptide, UniProt Q9GZZ9 334-346, looked up, source: synthetic peptide) [fluorescein-labeled UIS peptide (amino acids 334–346 of UBA5)] showed a Kd of 8.47 µM.
